Article PMC9910460 (Proceedings of the National Academy of Sciences of the …, 2022)

Target: TF-Mec1 1–500aa (Saccharomyces cerevisiae, UniProt P38111 1-500)
Assay: pull-down

TF-Mec1 1–500aa, sequence (P38111 1-500): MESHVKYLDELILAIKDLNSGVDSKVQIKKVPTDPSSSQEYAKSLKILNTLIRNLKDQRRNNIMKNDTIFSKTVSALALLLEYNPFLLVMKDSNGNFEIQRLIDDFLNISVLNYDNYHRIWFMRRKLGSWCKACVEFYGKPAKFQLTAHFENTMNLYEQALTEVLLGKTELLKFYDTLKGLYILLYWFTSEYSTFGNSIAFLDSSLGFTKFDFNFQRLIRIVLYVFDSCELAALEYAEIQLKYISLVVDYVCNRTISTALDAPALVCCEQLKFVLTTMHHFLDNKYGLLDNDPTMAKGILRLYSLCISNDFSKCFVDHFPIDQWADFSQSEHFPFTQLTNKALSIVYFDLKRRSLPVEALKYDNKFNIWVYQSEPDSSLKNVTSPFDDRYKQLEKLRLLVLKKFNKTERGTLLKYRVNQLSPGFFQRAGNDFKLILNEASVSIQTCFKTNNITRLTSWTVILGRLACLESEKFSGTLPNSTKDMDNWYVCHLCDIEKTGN

B1: GST–Atg13 460–640aa (domain or fragment, Saccharomyces cerevisiae, UniProt Q06628 460-640, looked up)
chain: ESQEDLMDFVKLLEEKPDLTIKKTSGNNPPNINISDSLIRYQNLKPSNDLLSEDLSVSLSMDPNHTYHRGRSDSHSPLPSISPSMHYGSLNSRMSQGANASHLIARGGGNSSTSALNSRRNSLDKSSNKQGMSGLPPIFGGESTSYHHDNKIQKYNQLGVEEDDDDENDRLLNQMGNSATK
B1: binds.
